Results published in patent US20200331991A1 (Teva, published 2020).
Where a chain is given by its changes, count along the chain named. Where no end group is shown, it is not given here.

B1: Human adrenomedullin (1-52) (peptide)
peptide: YRQSMNNFQGLRSFGCRFGTCTVQKLAHQIYQFTDKDKDNVAPRSKISPQGY-NH2
modifications: ends and bridges not checked
B2: human α-CGRP 1-19-COOH (peptide)
peptide: ACDTATCVTHRLAGLLSRS-OH
modifications: ends and bridges not checked
B3: Human amylin (1-37) (peptide)
peptide: KCNTATCATQRLANFLVHSSNNFGAILSSTNVGSNTY-NH2
modifications: ends and bridges not checked
B4: human α-CGRP 1-13-COOH (peptide)
peptide: ACDTATCVTHRLA-OH
modifications: ends and bridges not checked
B5: 19-36 CONH2 (peptide)
peptide: SGGVVKNNFVPTNVGSKA-NH2
notes: also called human α-CGRP 19-36, amidated at the C-terminus
B6: antibody G1 Fab fragment (Fab, V domains shown)
VH: EVQLVESGGGLVQPGGSLRLSCAASGFTFSNYWISWVRQAPGKGLEWVAEIRSESDASATHYAEAVKGRFTISRDNAKNSLYLQMNSLRAEDTAVYYCLAYFDYGLAIQNYWGQGTLVTVSS
VL: EIVLTQSPATLSLSPGERATLSCKASKRVTTYVSWYQQKPGQAPRLLIYGASNRYLGIPARFSGSGSGTDFTLTISSLEPEDFAVYYCSQSYNYPYTFGQGTKLEIK
B7: Human calcitonin (1-32) (peptide)
peptide: CGNLSTCMLGTYTQDFNKFHTFPQTAIGVGAP-NH2
modifications: ends and bridges not checked

Columns and labels:
[1] = target: B6; assay: Biacore competition: G1 Fab 50 nM pre-incubated 1 h with 10 uM peptide, then over biotinylated human α-CGRP on SA chip
Description: (§1) Y axis represents percentage of binding blocked by the presence of the competing peptide compared with the binding in the absence of the competing peptide.
(§2) All these peptides are amidated at the C-terminus.

[2] = target: B2; assay: Biacore peptide competition (FIG. 6)
Description: as §1, §2

[3] = target: B4; assay: Biacore peptide competition (FIG. 6)
Description: as §1, §2

[4] = target: B3; assay: Biacore peptide competition (FIG. 6)
Description: as §1, §2

[5] = target: B1; assay: Biacore peptide competition (FIG. 6)
Description: as §1, §2

[6] = target: B7; assay: Biacore peptide competition (FIG. 6)
Description: as §1, §2

[7] = target: human α-CGRP 19-36-COOH (human, Table 4: free C-terminus (COOH); paragraph 375 calls it amidated at the C-terminus); assay: Biacore peptide competition (FIG. 6)
Description: as §1, §2

[8] = target: T1, human α-CGRP K35A (19-37) (human, not fully specified); assay: Biacore: 50 nM G1 Fab with 10 uM competing peptide in solution, over human α-CGRP on chip
T1 peptide: SGGVVKNNFVPTNVGSAAF-NH2
Description: as §1, §2

[9] = target: T2, human α-CGRP 26-37 (human); assay: as above
T2 peptide: NFVPTNVGSKAF-NH2
Description: as §1, §2

[10] = target: T3, rat α-CGRP (1-37) (rat, C-terminal amide; N-terminal biotin when captured on the SA chip); assay: as above
T3 construct: also called rat α (1-37); α-rat
T3 peptide: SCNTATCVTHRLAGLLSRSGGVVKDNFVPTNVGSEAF
Description: as §1, §2

[11] = target: T4, human α-CGRP K35E (19-37) (human, not fully specified); assay: as above
T4 peptide: SGGVVKNNFVPTNVGSEAF-NH2
Description: as §1, §2

[12] = target: T5, rat β-CGRP (1-37) (rat, C-terminal amide; N-terminal biotin when captured on the SA chip); assay: as above
T5 construct: also called rat β (1-37)
T5 peptide: T3 peptide with E35K
Description: as §1, §2

[13] = target: T6, human α-CGRP P29A (19-37) (human); assay: as above
T6 peptide: SGGVVKNNFVATNVGSKAF-NH2
Description: as §1, §2

[14] = target: T7, human α-CGRP K35M (19-37) (human, not fully specified); assay: as above
T7 peptide: SGGVVKNNFVPTNVGSMAF-NH2
Description: as §1, §2

[15] = target: T8, human α-CGRP 8-37 (human, C-terminal amide); assay: as above
T8 peptide: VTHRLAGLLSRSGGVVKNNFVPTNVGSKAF
Description: as §1, §2

[16] = target: T9, human β-CGRP (1-37) (human, not fully specified; C-terminal amide; N-terminal biotin when captured on the SA chip); assay: as above
T9 construct: also called human β (1-37)
T9 peptide: T3 peptide with S1A, V22M, D25S, E35K
Description: as §1, §2

[17] = target: T10, human α-CGRP 1-36-COOH (human, free C-terminus (not amidated)); assay: as above
T10 construct: also called 1-36 (not amidated at the C-terminus)
T10 peptide: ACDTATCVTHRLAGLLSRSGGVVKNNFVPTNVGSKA

Binder: B1
- binding result [1]: no binding (tested: 10 uM)

Binder: B2
- binding result [1]: no binding (tested: 10 uM)

Binder: B3
- binding result [1]: no binding (tested: 10 uM)

Binder: B4
- binding result [1]: no binding (tested: 10 uM)

Binder: B5
- % Binding blocked [1]: 0.6%
- binding result [1]: no binding (tested: 10 uM)

Binder: B6
- binding result [2]: no binding (tested: 10 uM peptide in 50 nM G1 Fab)
- binding result [3]: no binding (tested: 10 uM peptide in 50 nM G1 Fab)
- binding result [4]: no binding (tested: 10 uM peptide in 50 nM G1 Fab)
- binding result [5]: no binding (tested: 10 uM peptide in 50 nM G1 Fab)
- binding result [6]: no binding (tested: 10 uM peptide in 50 nM G1 Fab)
- binding result [7]: no binding (tested: 10 uM peptide in 50 nM G1 Fab)
- % of binding blocked by competing peptide [8]: 100%
- % of binding blocked by competing peptide [9]: 100%
- % of binding blocked by competing peptide [10]: 100%
- % of binding blocked by competing peptide [11]: 100%
- % of binding blocked by competing peptide [12]: 100%
- % of binding blocked by competing peptide [13]: 100%
- % of binding blocked by competing peptide [14]: 100%
- % of binding blocked by competing peptide [15]: 100%
- % of binding blocked by competing peptide [16]: 100%
- % of binding blocked by competing peptide [17]: ~40%

Binder: B7
- binding result [1]: no binding (tested: 10 uM)
